The values below come from patent publication US20240209068A1.

Assay [1] addresses Clostridium difficile toxin A (purified) (Clostridium difficile) (UniProt P16154). In words: cell-based or functional assay.
Assay [2] shares this target.

Actoxumab IgA2m1, sequence (heavy, form in doubt): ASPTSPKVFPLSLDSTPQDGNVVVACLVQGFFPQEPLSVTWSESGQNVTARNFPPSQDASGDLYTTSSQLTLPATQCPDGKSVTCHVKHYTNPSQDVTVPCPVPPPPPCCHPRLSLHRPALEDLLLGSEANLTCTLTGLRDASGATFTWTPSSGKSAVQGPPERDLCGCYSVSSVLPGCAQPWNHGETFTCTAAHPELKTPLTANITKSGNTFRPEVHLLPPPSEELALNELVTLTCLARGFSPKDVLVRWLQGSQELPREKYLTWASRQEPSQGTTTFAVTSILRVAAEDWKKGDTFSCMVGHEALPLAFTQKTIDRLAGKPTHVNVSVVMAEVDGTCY
Actoxumab IgA2m1, sequence (P01591 whole entry, form in doubt): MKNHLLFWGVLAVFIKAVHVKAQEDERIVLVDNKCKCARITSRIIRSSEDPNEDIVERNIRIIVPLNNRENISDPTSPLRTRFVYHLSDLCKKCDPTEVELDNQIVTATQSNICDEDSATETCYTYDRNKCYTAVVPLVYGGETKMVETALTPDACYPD

Take Actoxumab IgA2m1 (antibody): in assay [1], the potency (IC50) of Toxin A neutralization on Vero cells relative to Actoxumab IgG; antibody from mRNA-transfected cell supernatant is 200 fold and the potency (IC50) of Toxin A neutralization on Vero cells relative to Actoxumab IgG; recombinant antibody protein came out at 200 fold. Further, in assay [2], the IC50 (read off the curve); % neutralization of Toxin A on Vero cells (alamarBlue), curve 'Actoxumab IgA2m1 Protein' was determined as 0.03 µg/mL and the IC50 (read off the curve); % neutralization of Toxin A on Vero cells (alamarBlue), curve 'Actoxumab IgA2m1 mRNA' is 0.01 µg/mL.
